Measured values as given in patent US20210261643A1, “INHIBITORS OF P-TEFB MEDIATED TRANSCRIPTION” (The Regents of the University of California, priority 2018, published 2021).

Legend:
[1] = system: host cell gene expression in 293T cells; assay: mRNA-seq analysis in 293T cells; assay type: cell-based
Description: The specificity of HT1 was further investigated by mRNA-seq analysis in 293T cells. Only 48 genes were differentially expressed upon ectopic expression of HT1, while knocking out CycT1 as a control impacted 1673 genes.

[2] = system: CEM, MOLT4, and MT4 T cell lines; assay: Cell growth of T cell lines stably expressing HT1 (total viable cell count); assay type: cell-based; details: C-HT, MO-HT, MT-HT vs CEM, total viable cell count over time
Procedure: Finally, the impact of HT1 on cell growth was assessed using three T cell lines (CEM, MOLT4, and MT4) infected by a lentivirus expressing a triple Flag-epitope tagged HT1 (3f:HT1). Polyclonal population of HT1-expressing cells (C-HT, MO-HT, and MT-HT, respectively) was selected by puromycin and confirmed by BFP expression detected by FACS analysis and WB. […] This confirmed that HT1 was specific to HIV inhibition, and that the few off-target effects had little impact on the metabolism of the cells.

[3] = system: HIV reactivation in 2D10 cells; assay: HIV reactivation in 2D10 latent infection model, FACS of GFP positive cells; assay type: cell-based; details: D-HT cells, 24 hrs
Description: (§1) FIGS. 4A and 4B. Stable expression of HT1 inhibits HIV reactivation. FIG. 4A: Stable expression of HT1 inhibits HIV reactivation from 2D10 cells. 3f:HT1 was stably expressed in 2D10 cells (D-HT cells). […] Error bars represent standard deviation from triplicate FACS analysis. FIG. 4B: Stable expression of HT1 inhibits HIV reactivation from J-Lat 9.2 cells. 3f:HT1 was stably expressed in J-Lat 9.2 cells (L-HT cells). […] Error bars represent standard deviation from triplicate FACS analysis.
(§2) To test the effect of HT1 on HIV-1 in T-lymphocyte derived cells, 3f:HT1 was stably expressed in HIV latent infection models 2D10 and J-Lat 9.2 cells (D-HT and L-HT cells respectively), which carry replication-defective, GFP-flagged HIV proviruses. In both 2D10 and J-Lat 9.2, the basal HIV transcription level is undetectable, as measured through GFP expression. Compounds such as the PKC agonist PMA, the histone deacetylase inhibitor SAHA or the BET bromodomain inhibitor JQ1 reactivate HIV transcription and increase GFP-positive cells detected by FACS analysis. 2D10 cells are more sensitive to HIV reactivation than J-Lat 9.2 cells, though they harbor a mutation in the N-terminal sequence of Tat (H13L). 2D10 and D-HT cells were incubated for 24 hrs with PMA (10 nM), SAHA (5 μM) or JQ1 (1 μM) and GFP positive cells were detected by FACS analysis. PMA, SAHA and JQ1 reactivated HIV from 65%, 71% and 58% less D-HT cells than from control 2D10 cells, respectively. Due to the limited HIV reactivation by SAHA and JQ1 in J-Lat 9.2 cells, we only treated them with PMA (100 nM), which induced a 12% increase in GFP expression.

[4] = system: HIV reactivation in J-Lat 9.2 cells; assay: HIV reactivation in J-Lat 9.2 latent infection model, FACS of GFP positive cells; assay type: cell-based; details: PMA 100 nM
Description: as §1
as §2, with “PMA, SAHA and JQ1 reactivated HIV from 65%, 71% and 58% less D-HT cells than from control 2D10 cells, respectively. Due to the limited HIV reactivation by SAHA and JQ1 in J-Lat 9.2 cells, we only treated them with PMA (100 nM), which induced a 12% increase in GFP expression.” left out

P-TEFb (CycT1) = target: T1, P-TEFb (CycT1) (Homo sapiens, UniProt O60563); assay: Co-immunoprecipitation of CycT1 from 293T cell lysates; assay type: binding
T1 construct: endogenous in cells; host or cells: 293T
Description: We next investigated the mechanisms by which HT1 can prevent HIV gene expression.

[5] = system: early steps of HIV infection (HIV-1 NL43ΔenvLuc); assay: Single-round infection with Env-pseudotyped replication-defective HIV, proviral DNA by qPCR; assay type: cell-based; details: C-HT, MO-HT, MT-HT cells
Description: FIGS. 5A, 5B, 5C, and 5D. Stable expression of HT1 inhibits HIV replication. FIG. 5A. Stable expression of HT1 inhibits HIV-1 replication in C-HT cells. 1E+06 HT1-expressing CEM-HT cells and e control CEM cells were challenged by HIV-1 NL43 infection. FIG. 5B. Stable expression of HT1 inhibits HIV-1 replication in MO-HT cells. 1E+06 HT1-expressing MOLT4-HT cells, and control MOLT4 cells were challenged by HIV-1 NL43 infection. FIG. 5C. Stable expression of HT1 inhibits HIV-1 replication in MT-HT cells. 1E+06 HT1-expressing MT4-HT cells, and control MT4 cells were challenged by HIV-1 NL43 infection. In each of FIGS. 5A, 5B, and 5C, virus production was assessed by Gag p24 ELISA in supernatants when cells were passaged at days 0, 2 and 4, and plotted. Error bars represent standard deviation from triplicate experiments. FIG. 5D: Stable expression of HT1 doesn't inhibit early steps of HIV-1 infection in C-HT, MO-HT, and MT-HT cells. Single-round infection assays were performed in the same conditions as in FIG. 5A-C above, but using replication-defective HXB2 Env-pseudotyped HIV-1 NL43ΔenvLuc. The relative amount of HIV DNA integrated in the cells' genomic DNA was assessed after 24 h by qPCR. […]
On 2 dpi, virus production was detected from CEM, MOLT4 and MT4 cells and reached around 20 (CEM, MT4) to 110 (MOLT4) ng/mL p24 concentration in the supernatant on 4 dpi.

[6] = system: HIV promoter (P-HIV) transactivation by Tat; assay: Luc assay with replication-defective HIV-1 molecular clone pNL43ΔenvLuc in 293T cells; assay type: cell-based; details: transient expression

T1 sequence (O60563 whole entry): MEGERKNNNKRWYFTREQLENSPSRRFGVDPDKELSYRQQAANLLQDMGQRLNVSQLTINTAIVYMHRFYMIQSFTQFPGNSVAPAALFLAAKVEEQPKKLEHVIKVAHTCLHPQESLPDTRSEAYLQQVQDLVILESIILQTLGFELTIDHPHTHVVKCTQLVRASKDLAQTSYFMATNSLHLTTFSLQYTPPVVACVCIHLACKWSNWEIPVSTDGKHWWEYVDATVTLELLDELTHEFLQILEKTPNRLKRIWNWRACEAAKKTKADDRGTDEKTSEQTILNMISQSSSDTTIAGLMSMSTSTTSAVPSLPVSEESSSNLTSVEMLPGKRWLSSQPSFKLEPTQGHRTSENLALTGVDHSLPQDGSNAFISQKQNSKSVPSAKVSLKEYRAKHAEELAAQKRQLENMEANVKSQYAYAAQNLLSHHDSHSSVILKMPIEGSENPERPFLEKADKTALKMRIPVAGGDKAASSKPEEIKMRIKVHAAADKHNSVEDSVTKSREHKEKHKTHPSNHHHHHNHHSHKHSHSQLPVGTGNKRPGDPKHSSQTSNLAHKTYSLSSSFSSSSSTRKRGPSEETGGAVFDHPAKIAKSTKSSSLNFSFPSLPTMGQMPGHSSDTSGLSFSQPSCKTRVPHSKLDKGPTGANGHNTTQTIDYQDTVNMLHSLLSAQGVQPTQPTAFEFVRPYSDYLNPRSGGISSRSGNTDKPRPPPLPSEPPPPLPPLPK
T1 sequence (P50750 whole entry partner): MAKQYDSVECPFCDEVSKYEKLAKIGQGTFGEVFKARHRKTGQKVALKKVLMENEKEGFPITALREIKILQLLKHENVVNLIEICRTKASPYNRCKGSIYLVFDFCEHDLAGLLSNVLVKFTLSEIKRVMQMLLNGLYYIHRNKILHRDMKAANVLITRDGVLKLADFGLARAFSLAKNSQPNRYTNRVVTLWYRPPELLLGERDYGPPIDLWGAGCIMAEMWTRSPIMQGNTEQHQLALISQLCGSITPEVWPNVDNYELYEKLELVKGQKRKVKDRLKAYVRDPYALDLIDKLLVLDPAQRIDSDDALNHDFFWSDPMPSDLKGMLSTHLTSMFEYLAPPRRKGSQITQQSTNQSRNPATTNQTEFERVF

B1: HT1 (protein)
chain: KKKHRRRPSKKKRHWKPYYKLTWEEKKKFDEKQSLRASRIRAEMFAKGQPVAPYNTTQFLMDDHDQEEPDLVDMEPVDPYLEPWKHPGSQPRTACNNCYCKKCCFHCYACFTRKGLGISYG
modifications: left off: small tags and cut ends
[1]
  genes differentially expressed upon ectopic expression: 48 genes
[1]; padj=9.6E−06
  7SK RNA fold-change: 1.1
[2]
  cellular growth rate versus control cells: no difference
[3]; JQ1 1 μM
  fewer cells with reactivated HIV (GFP positive) than control 2D10 cells: 58%
[3]; PMA 10 nM
  fewer cells with reactivated HIV (GFP positive) than control 2D10 cells: 65%
[3]; SAHA 5 μM
  fewer cells with reactivated HIV (GFP positive) than control 2D10 cells: 71%
[4]
  decrease of GFP expression in L-HT compared to J-Lat 9.2: 94%
P-TEFb (CycT1); fixed amount of f:Tat, increasing amounts of m:HT1
  amounts of CycT1 co-immunoprecipitating with f:Tat: decreased
P-TEFb (CycT1); transient expression in 293T cells, anti-Myc or anti-Flag Abs
  binding to CycT1 by co-immunoprecipitation: bound to CycT1
[5]
  early steps of HIV infection (proviral DNA by qPCR): not affected
[6]
  decrease in Luc expression: 3 fold
